Measurements published in patent publication US20260015426A1 (23ANDME, published 2026).
Blank lines part the entries; values can stand above or below the binder they belong to.

What was measured:
[1] = molecular target: T1, human IL1RAP (hu-IL1RAP) on human cells (human, UniProt Q9NPH3 21-570); experiment: cell-based or functional assay
T1 sequence: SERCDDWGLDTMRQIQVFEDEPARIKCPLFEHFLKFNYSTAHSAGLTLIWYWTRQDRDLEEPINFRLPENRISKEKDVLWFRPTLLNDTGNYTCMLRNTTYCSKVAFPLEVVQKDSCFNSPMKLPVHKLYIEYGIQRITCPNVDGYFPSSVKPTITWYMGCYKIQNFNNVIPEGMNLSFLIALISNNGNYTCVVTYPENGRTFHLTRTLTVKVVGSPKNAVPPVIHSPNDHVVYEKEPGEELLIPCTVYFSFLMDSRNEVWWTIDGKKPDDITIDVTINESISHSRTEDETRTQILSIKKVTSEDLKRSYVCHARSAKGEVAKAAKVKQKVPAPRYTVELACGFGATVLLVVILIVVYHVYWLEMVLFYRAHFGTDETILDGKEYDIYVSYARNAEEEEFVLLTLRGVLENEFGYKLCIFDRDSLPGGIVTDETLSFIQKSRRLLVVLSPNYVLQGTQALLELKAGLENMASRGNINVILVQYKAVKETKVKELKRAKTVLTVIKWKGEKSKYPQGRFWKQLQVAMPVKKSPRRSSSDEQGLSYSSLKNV

[2] = molecular target: T2, hu-M-IL1RAP construct, positions S21-T367 (extracellular domain of the membrane form of human IL1RAP) (human, UniProt Q9NPH3 21-367); experiment: BLI (OCTET), mAb captured, 25 C
T2 construct: Biotinylated when captured on the Biacore chip
T2 sequence: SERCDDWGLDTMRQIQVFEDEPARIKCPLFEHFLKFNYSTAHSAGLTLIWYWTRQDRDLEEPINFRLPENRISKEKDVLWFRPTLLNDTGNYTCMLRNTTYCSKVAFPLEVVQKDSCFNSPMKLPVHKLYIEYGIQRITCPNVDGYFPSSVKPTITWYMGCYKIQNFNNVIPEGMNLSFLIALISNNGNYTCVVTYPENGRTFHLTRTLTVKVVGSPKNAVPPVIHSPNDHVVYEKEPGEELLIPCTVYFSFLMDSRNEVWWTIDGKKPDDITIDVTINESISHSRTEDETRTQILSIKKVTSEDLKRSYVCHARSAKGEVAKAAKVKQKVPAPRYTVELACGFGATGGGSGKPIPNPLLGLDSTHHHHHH
Protocol: All samples were placed in black 96-well plates and the experiment was performed at 25° C. […] The biosensors were equilibrated in experimental buffer at 25° C. for ten minutes prior to starting the experiment.
The resulting BLI signal from analyte association and dissociation from the immobilized antibody was analyzed using the Octet Data Analysis software (Pall ForteBio). First, a reference subtraction was performed on all recorded traces using the reference well (biosensor that underwent the same steps as experimental wells but no analyte for the Association step), then all the traces were aligned to the beginning of the Association step.

[3] = molecular target: T2, hu-M-IL1RAP construct, positions …; experiment: ELISA, purified mAb
Protocol: (§1) After removing the coating solution, unspecific binding was blocked by adding 200 μL of assay/blocking solution containing 1% bovine serum albumin (BSA) in phosphate buffered saline (PBS) pH 7.4 (ELISA diluent) and incubation at room temperature for one hour with agitation or overnight at 4° C. without agitation. Plates were then washed three times with 300 μL of PBS, 0.05% TWEEN®-20 (wash buffer). 100 μL of culture supernatant from individual hybridoma clones (or purified antibodies at the indicated concentration) was added to individual wells followed by incubation at room temperature for one hour with agitation. […] The plate was incubated at room temperature for one hour with agitation, washed six times with wash buffer and developed for 3-10 minutes by adding 50 μL/well of tetramethylbenzidine (TMB) microwell peroxidase substrate (Scytek Laboratories, Inc., Logan, UT, USA; catalogue number TM1999).

[4] = molecular target: T3, hu-S-IL1RAP construct, positions S21-Q356 (soluble human IL1RAP) (human, UniProt Q9NPH3 21-350); experiment: ELISA, purified mAb
T3 sequence: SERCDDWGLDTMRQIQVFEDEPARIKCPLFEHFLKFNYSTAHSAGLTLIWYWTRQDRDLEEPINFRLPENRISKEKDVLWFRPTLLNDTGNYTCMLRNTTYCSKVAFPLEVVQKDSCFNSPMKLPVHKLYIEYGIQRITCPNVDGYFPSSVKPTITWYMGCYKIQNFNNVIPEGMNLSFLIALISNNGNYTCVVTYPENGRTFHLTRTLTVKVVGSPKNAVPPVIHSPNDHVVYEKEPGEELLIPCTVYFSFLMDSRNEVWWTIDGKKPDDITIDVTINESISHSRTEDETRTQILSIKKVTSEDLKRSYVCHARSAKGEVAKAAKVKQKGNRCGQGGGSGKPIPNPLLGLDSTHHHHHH
Protocol: as §1

[5] = molecular target: T4, cyno-M-IL1RAP construct, positions S21-T367 (cynomolgus monkey, UniProt P59822 21-367 (rhesus entry)); experiment: ELISA, purified mAb
T4 construct: Biotinylated when captured on the Biacore chip; also called cy-M-IL1RAP
T4 sequence: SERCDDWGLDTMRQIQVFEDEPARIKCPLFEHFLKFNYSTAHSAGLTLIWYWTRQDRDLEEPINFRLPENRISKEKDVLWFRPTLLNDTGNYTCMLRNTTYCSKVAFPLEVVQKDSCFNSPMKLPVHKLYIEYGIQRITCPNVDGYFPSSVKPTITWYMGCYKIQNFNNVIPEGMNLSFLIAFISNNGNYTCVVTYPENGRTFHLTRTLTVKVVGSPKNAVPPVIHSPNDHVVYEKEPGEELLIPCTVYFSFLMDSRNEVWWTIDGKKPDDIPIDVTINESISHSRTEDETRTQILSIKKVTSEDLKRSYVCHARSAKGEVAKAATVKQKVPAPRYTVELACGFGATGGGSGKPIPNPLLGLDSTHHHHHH
Protocol: as §1

[6] = molecular target: T5, mu-M-IL1RAP construct, positions S21-T367 (mouse, UniProt Q61730 21-367); experiment: ELISA, purified mAb
T5 construct: also called mo-M-IL1RAP; mouse-M-IL1RAP
T5 sequence: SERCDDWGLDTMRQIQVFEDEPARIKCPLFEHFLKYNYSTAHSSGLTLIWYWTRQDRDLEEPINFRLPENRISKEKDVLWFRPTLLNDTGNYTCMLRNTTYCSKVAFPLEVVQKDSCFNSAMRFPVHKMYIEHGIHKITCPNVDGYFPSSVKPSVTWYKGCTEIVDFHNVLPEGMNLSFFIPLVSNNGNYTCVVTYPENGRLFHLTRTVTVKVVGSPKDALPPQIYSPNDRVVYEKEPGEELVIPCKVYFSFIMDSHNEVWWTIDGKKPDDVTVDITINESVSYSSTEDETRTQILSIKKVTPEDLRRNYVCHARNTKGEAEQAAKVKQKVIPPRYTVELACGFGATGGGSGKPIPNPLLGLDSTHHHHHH
Protocol: as §1

[7] = molecular target: T2, hu-M-IL1RAP construct, positions …; experiment: ELISA, mAb at 10 nM
Protocol: as §1
(§2) Binding domain mapping: Binding domain mapping of the 15 purified antibodies was carried out using the above-described ELISA assay with the following IL1RAP polypeptide constructs coated at 1 μg/ml on the assay plates: hu-M-IL1RAP, hu-M-IL1RAP-D1, hu-M-IL1RAP-D1D2, and hu-M-IL1RAP-D3.

[8] = molecular target: T6, hu-M-IL1RAP-D3 construct, positions K238-T367 (human); experiment: ELISA, mAb at 10 nM
T6 chain: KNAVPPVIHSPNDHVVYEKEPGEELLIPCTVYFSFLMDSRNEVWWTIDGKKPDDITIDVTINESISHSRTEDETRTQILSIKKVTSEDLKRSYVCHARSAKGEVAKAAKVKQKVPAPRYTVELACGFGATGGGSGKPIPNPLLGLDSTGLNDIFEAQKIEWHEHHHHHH
Protocol: as §1, §2

[9] = molecular target: T1, human IL1RAP (hu-IL1RAP) on human cells; experiment: cell-based or functional assay; remark: listed apart in the source
[10] = molecular target: T1, human IL1RAP (hu-IL1RAP) on human cells; experiment: cell-based or functional assay; remark: listed apart in the source
[11] = molecular target: T2, hu-M-IL1RAP construct, positions …; experiment: ELISA, hybridoma supernatant
Protocol: as §1

[12] = molecular target: T2, hu-M-IL1RAP construct, positions …; experiment: SPR, 37 C
Protocol: (§3) Surface plasmon resonance (SPR) analysis was used to determine binding affinity for hu-M-IL1RAP of the purified Fabs containing the selected single, double, and triple mutations in either the VL or VH regions using a BIACORE™ 8K instrument. […] For kinetics measurements, 5 nM biotinylated hu-M-IL1RAP was captured at 10 μL/min to achieve ˜50 response units in the second flow cell (FC2). FC1 was kept as a reference. […] The sensorgrams were recorded and subjected to reference and buffer subtraction before data analysis with the BIACORE® 8K Evaluation Software (version 1.1.1.7442). Association rates (kₒₙ) and dissociation rates (koff) were calculated using a simple one-to-one Langmuir binding model. The equilibrium dissociation constant (KD) was calculated as the ratio of koff/kₒₙ.

[13] = molecular target: T4, cyno-M-IL1RAP construct, positions …; experiment: SPR, 37 C
Protocol: as §3

[14] = molecular target: T1, human IL1RAP (hu-IL1RAP) on human cells; experiment: cell-based or functional assay; remark: listed apart in the source
[15] = molecular target: T2, hu-M-IL1RAP construct, positions …; experiment: SPR, IgG analyte (apparent), 37 C, pH 6
Protocol: as §3

[16] = molecular target: T4, cyno-M-IL1RAP construct, positions …; experiment: SPR, IgG analyte (apparent), 37 C, pH 6
Protocol: as §3

[17] = molecular target: T2, hu-M-IL1RAP construct, positions …; experiment: SPR, IgG analyte (apparent), 37 C, pH 7.4
Protocol: as §3

[18] = molecular target: T4, cyno-M-IL1RAP construct, positions …; experiment: SPR, IgG analyte (apparent), 37 C, pH 7.4
Protocol: as §3

[19] = molecular target: T2, hu-M-IL1RAP construct, positions …; experiment: SPR, IgG analyte (apparent), pH 7.4, 37 C
[20] = molecular target: T4, cyno-M-IL1RAP construct, positions …; experiment: SPR, IgG analyte (apparent), pH 7.4, 37 C

B1: c11C5_C59Y (C59Y variant of c11C5) (antibody, IgG1, V domains shown)
VH: EVQLVESGGGLVKPGGSLKLSCAASGFTFSNYAMSWVRQTPEKRLEWVATVTEGGDYNYYLDDVKGRFTISRDNANDNLYLQMSHLKSEDSARYYCARDRWPYFFDYWGQGTTLTVSS
VL: DIQMTQSPASLSVSVGETVTITCRASENIYSNLAWYQQKQGRSPQLLVYGAKNLADGVPSRFSGSGSGTQYSLNINSLQSEDFGTYYCQHFWTTPRTFGGGTKLEIK
notes: Murine VL and VH, human CL and IgG1 CH1-CH3 domains with effectorless N297G
NK cells, IL-33+IL-12 stimulated IFN-γ, IC50 [1]: 2900 pM
PHLF, IL-1α stimulated IL-8, IC50 [1]: 3960 pM
PHLF, IL-36β stimulated IL-8, IC50 [1]: 284 pM
monocytes, IL-1β stimulated IL-6, IC50 [1]: 733 pM
Kd [2]: 446 pM

B4: 10A11 (purified mAb from hybridoma 10A11) (antibody, V domains shown)
VH: EVQLQQSGAELVKPGASVRLSCTSSGFNIKDYFMHWVKQRTEQGLEWVGRIDPEDGETQYAPNFQDKATITVDTSSNTVYLQLSSLTSEDTAVYYCFRPLYYGNSPWFAYWGQGTLVTVSP
VL: DIQMTQTTSSLSASLGDRVTISCRASQDISNYLNWYQQKPDGTVKLLIYYTSTLHSGVPSRFSGSGSGTDYSLTISNLEPEDIATYYCHQYSKFPPTFGSGTKLEIK
notes: Mouse hybridoma mAb
EC50 [3]: 39 pM
EC50 [4]: 35 pM
EC50 [5]: 32 pM
binding result [6]: no binding (tested: 20 nM (highest tested))
A450 [7]: 1.18 A450
A450 [8]: 1.4 A450
HEK-Blue SEAP, IL-1β, % inhibition (supernatant) [9]: 53%
HEK-Blue SEAP, IL-33, % inhibition (supernatant) [9]: 51%
HEK-Blue, IL-1β, % inhibition at 100 nM [10]: 72%
HEK-Blue, IL-33, % inhibition at 100 nM [10]: 56%
A450 [11]: 0.99 A450

Continued, in another order:

EC50 [3]: 39 pM
EC50 [4]: 35 pM
EC50 [5]: 32 pM
A450 [7]: 1.12 A450
A450 [8]: 1.46 A450
HEK-Blue SEAP, IL-1β, % inhibition (supernatant) [9]: 48%
HEK-Blue SEAP, IL-33, % inhibition (supernatant) [9]: 33%
HEK-Blue, IL-1β, % inhibition at 100 nM [10]: 89%
HEK-Blue, IL-33, % inhibition at 100 nM [10]: 69%
A450 [11]: 1.01 A450
B2: 13D8 (purified mAb from hybridoma 13D8) (antibody, V domains shown)
VH: EVQLVESGGGLVKPGGSLKLSCTASGFTFSNYAMSWVRQTPEKRLEWVATISDGGNYTYYPDNVKGRFTISRDIAKNNLYLQMSHLKSEDTAMYYCARDRWPYFFDFWGQGTTLTVSS
VL: DIQMTQSPASLSVSVGETVTITCRASDNIYSNLAWYQEKQGKSPQLLVYGATNLADGVPSRFSGSGSGTQYSLKINSLQSEDFGSYYCQHFWTTPRSFGGGTKLELK
notes: Mouse hybridoma mAb
binding result [6]: no binding (tested: 20 nM (highest tested))

KD (6)/KD (7.4) [12]: 3.3 ratio
KD (7.4) ratio to YIS [12]: 1 ratio
koff (6) ratio to YIS [12]: 1 ratio
KD (6)/KD (7.4) [13]: 2.5 ratio
KD (7.4) ratio to YIS [13]: 1 ratio
koff (6) ratio to YIS [13]: 1 ratio
HEK-Blue, IL-1β, % inhibition at 100 nM (IgG) [14]: 100%
HEK-Blue, IL-1β, IC50 (IgG) [14]: 251 pM
HEK-Blue, IL-33, % inhibition at 100 nM (IgG) [14]: 98%
HEK-Blue, IL-33, IC50 (IgG) [14]: 425 pM
HEK-Blue, IL-36α, % inhibition at 100 nM (IgG) [14]: 100%
HEK-Blue, IL-36α, IC50 (IgG) [14]: 232 pM
Kd [15]: 70.5 pM
koff [15]: 0.00015 s⁻¹
kon [15]: 2.12e+06 M⁻¹ s⁻¹
Kd [16]: 34.5 pM
koff [16]: 6.94e-05 s⁻¹
kon [16]: 2.01e+06 M⁻¹ s⁻¹
Kd [17]: 21.3 pM
koff [17]: 3.94e-05 s⁻¹
kon [17]: 1.85e+06 M⁻¹ s⁻¹
Kd [18]: 14 pM
koff [18]: 3e-05 s⁻¹
kon [18]: 2.14e+06 M⁻¹ s⁻¹
Kd [19]: 13 pM
koff [19]: 3.33e-05 s⁻¹
kon [19]: 2.55e+06 M⁻¹ s⁻¹
Kd [20]: 11.6 pM
koff [20]: 3.34e-05 s⁻¹
kon [20]: 2.87e+06 M⁻¹ s⁻¹
B3: h11C5 variant K13/H3 IgG (YIS) (antibody)
heavy: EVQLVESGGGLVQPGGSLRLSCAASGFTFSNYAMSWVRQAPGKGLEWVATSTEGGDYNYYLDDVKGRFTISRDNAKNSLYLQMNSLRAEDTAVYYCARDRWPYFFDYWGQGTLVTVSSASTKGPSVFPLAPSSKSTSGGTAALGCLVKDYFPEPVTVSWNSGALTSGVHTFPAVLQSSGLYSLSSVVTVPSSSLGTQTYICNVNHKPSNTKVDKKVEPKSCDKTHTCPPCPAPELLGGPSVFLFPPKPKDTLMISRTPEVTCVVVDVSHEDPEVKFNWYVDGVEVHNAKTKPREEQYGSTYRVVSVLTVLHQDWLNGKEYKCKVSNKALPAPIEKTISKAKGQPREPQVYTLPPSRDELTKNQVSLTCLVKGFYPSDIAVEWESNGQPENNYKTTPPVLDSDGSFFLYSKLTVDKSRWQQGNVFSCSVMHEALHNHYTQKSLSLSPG
light: DIQMTQSPSSLSASVGDRVTITCRASENIYSNLAWYQQKPGKSPKLLVYGYKNLADGVPSRFSGSGSGTDYTLTISSLQPEDFATYYCQHFITTPRTFGGGTKVEIKRTVAAPSVFIFPPSDEQLKSGTASVVCLLNNFYPREAKVQWKVDNALQSGNSQESVTEQDSKDSTYSLSSTLTLSKADYEKHKVYACEVTHQGLSSPVTKSFNRGEC
notes: Human IgG1 N297G; also called 11C5-YIS
